B1: BSH (group III): bile salt hydrolase group III from Turicibacter sanguinis 1E2, SEQ ID NO: 3 (protein, listed as Turicibacter sanguinis)
chain: MCTGLCLSTKDGKHLFGRNLDVPASYNQAVQIVPRNFKWLNVATQETITSKYACIAMGIVIDNHPLLFDGVNEKGLAGGGLNFTHFAKFSSTAVKDKISLSASDFVYWVLSTFSSLSELKETLPSVILTSIPFKPDLPVAGLHWIFTDKTGESIVIEYMEDGMHIHDNPVGVLTNDPTFDWQLTNLSQYVTLSCKTPQPEEMGNLLVKPFGHGLGMCGIPGDGSPAARFVRTVFFRDAVVGADDEISGVTAFFNVLSEVTVMKGSEIDPDGSMNFTVYKSAMCQESQTYYYTDYYNRRINAVKLTPDTMNADHITTFPYLGKQDICYQN
B2: BSH (group I): bile salt hydrolase group I from Turicibacter sanguinis MOL361, SEQ ID NO: 1 (protein, listed as Turicibacter sanguinis)
chain: MCTGLSLVTKDNKHLFGRNLDVPATYGQAVHIVPRNYDWFNIVSDETYTSKYACIGMGIVVDRLPLLFDAVNEKGLAGAGLNFTHFAKFNEKAVDGKTNISGSTFLYWALSNFSNLDELKEALKQLIITNIPVKEGLPVAGLHWMFTDLSGKSIVIEYMEDGMHVYDNPVGALTNDPTFPWHLTNLCQYVTLDTKTPAPKQFGEYVAKPFGHGLNMCGIPGDASPAARFVRTVYFRDTVVEADDEVSGVSAFFQVLTGVTVIKGSEIDPNGDMNYTVYKSCMCQESGTYYYTDYKNRRISAVCLSKADLDGKEIISFEYQGKQDILFQN
B3: BSH (group IV): bile salt hydrolase group IV from Turicibacter sanguinis MOL361, SEQ ID NO: 4 (protein, listed as Turicibacter sanguinis)
chain: MCTALSLTAKDGSHLFGRNMDIEYSFNQSILLTPRRFDYKNRATGEMNQTKYAIIGMGTIIDEHPCYAELFNEKGLAAAGLNFPNYAHWDEKAIEGKTNIPPYDLVLWVTSNFETVKEVKEALKDVVLVDVPVNEQTPIAPLHWMICDKTGESIVVEKTVNGLSVMDNKVGVLTNAPTFDWHLTNLTQYMGLTSTQPKDITLGEQELHPLGQGLGAFSLPGDYSSPSRFVKAAFLRNNIDYANVNYSGISEFFHILNGVAMVRGSVVTPQHLNDITLYTSCMDQERGIYYYNTYTNHTISSINMHNEDLDAKEIKSFKFNDEFAVNLQN
B4: BSH (group II): bile salt hydrolase group II from Turicibacter sanguinis H121, SEQ ID NO: 2 (protein, listed as Turicibacter sanguinis)
chain: MCTGLSLTTKDGKHFFGRNLDVPASYGQSVHIIPRNFNWLNVVNGETLASKYACIGMGIVVDNHPLLFDAVNEKGLAGGGLNFTHFAKFNENAIDGKINISASDFVYWALSNFADLNELRQALENLVLTNIPFEHELPVAGLHWMFTDLSGRSIVIENMADGMHIHENPVGVLTNDPTFDWHLTNLRQYVTLEKATPAPKQMGDLLLHPYGHGLGMCGIPGDASPAARFVRTVFFRDSIVEANDEISGVTAFLNVLTGVTVIKGSEVDPDGSMNYTVYKSAMCQESGTYYYTDYYNRRINAVKLSNANLDSKEITSFPYQGEQDILFQN
B5: 7α-HSDH homolog from MOL361: 7-alpha hydroxysteroid dehydrogenase homolog of MOL361, locus tag HLK68_RS02750, SEQ ID NO: 9, expressed in E. coli C41-pLys (protein, listed as Turicibacter sanguinis)
chain: MRKLENAIALVTSSTRGIGLACAKKLASEGAIVYMGVRRLEVTQEICDEVAKEGLKMKPVFFDAYNIDSYETMVEEVIREQGKIDILVNNFGTGRPEVDLDLVSGDEKAFFDILEANIGSVYRISKLVIPHMIKQGKGSIVNISSIGGTVPDISRIGYGVSKAGVNNITQQIAMQYARYNIRCNAVLPGLTATDAALDNMPEQFIKSFLSHVPLNRMGTPEDMANAVLFFASDDSSYVTGDIMEVSGGYHLGTPQYADFVGRKVVEEK

Assays:
[1] = tested on: tauro- (TCA, TCDCA) or glyco- (GCA, GCDCA) bile acids; assay: Deconjugation by E. coli C41-pLys expressing putative Turicibacter bsh genes (LC-MS); format: cell-based
Protocol: Control is E. coli with same expression vector but expressing non-bile-modifying gene. d, same as c, but with GCA and GCDCA instead of tauro-bile acids. e, Quantification of percent remaining (compared to media controls) of conjugated bile acid (TCA, TCDCA, GCA, GCDCA) after 24 h growth with E. coli expressing the noted Turicibacter bsh gene. n=3 independent cultures, *p<0.05, **p<0.005, ***p<0.0005 using one sample t-test comparison with 100% remaining. BSH nomenclature indicates homolog group (e.g. III) and isolate of origin (e.g. MOL361).
Conjugation increases bile acid solubility and emulsification ability^45, while deconjugation reverses these effects, leading to decreased dietary lipid absorption. To identify Turicibacter bile salt hydrolase (bsh) genes responsible for the strain-specific differences in bile deconjugation, the study first searched our assembled genomes for annotations of “choloylglycine hydrolase,” the broad category that includes these genes. […] Isolates within the same phylogenetic and phenotypic subgroups largely shared similar sequences (FIG. 11a, b). To assay the function of the strain-specific putative bsh genes, the study cloned and individually expressed one representative sequence from each of the eight putative choloylglycine hydrolase groups in E. coli C41-pLys and measured the ability of these engineered bacteria to perform the deconjugations the study observed in the native Turicibacter. The study cultured the individual E. coli strains to stationary phase in the presence of two tauro-(TCA, TCDCA) or glyco-(GCA, GCDCA) bile acids, then measured their ability to deconjugate these bile acid pools. […] Collectively, these findings reveal that Turicibacter strains contain a range of bile salt hydrolases with deconjugation preferences for different bile acids.
For bile species quantification, an internal spike-in standard of 100 mM chenodeoxycholic acid-D4 (CDCA-D4, Sigma) was added to initial culture supernatants as a normalization reference. Area under the curve from reconstructed ion chromatograms was used to quantify the abundances of each species.

CA, CDCA, and DCA = details: expressed in E. coli C41-pLys
Protocol: Escherichia coli C41-pLys (Lucigen) was used for characterizing putative bile modification genes, which were expressed off the pET21+plasmid. E. coli was grown acrobically shaking at 37° C. C in Luria Broth (LB, 1% NaCl, 1% tryptone, 0.5% yeast extract) supplemented with 100 μg mL^−1 ampicillin. Expression of genes was induced by addition of 100 μM IPTG.
In vitro characterization of bile transformations by engineered E. coli or B. thetaiotaomicron strains were performed by growing cells in respective media conditions described above supplemented with 0.5 mM (total combined concentration) of the noted bile species. Cells were grown to stationary phase (shaking at 37° C.), then frozen at −80° C. until further processing. Cells were then thawed, pelleted (5 minutes at 16,000×g), and the supernatant was removed to a new microcentrifuge tube. Three volumes of methanol was added, then the mixture was vigorously mixed for 30-60 seconds and incubated (room temperature, 15 minutes). Mixtures were centrifuged (5 minutes, 16,000×g), the supernatant removed to a clean microcentrifuge tube and dried in a vacuum concentrator. The dried residue was treated with methanol/water/formic acid (50/50/0.1, all by volume) then vigorously mixed and centrifuged as described above. […] The effluent from the column was passed through an electrospray ion source (capillary voltage 42V, capillary temperature 275° C., sheath gas flow 15 L min^−1, spray voltage 5 kV, and −15 kV conversion dynode with −1.2 k V multipliers) connected to a linear ion trap mass spectrometer (Thermo LTQ) scanning from m/z 95-1000 in the positive ion mode. Spectra were recorded and analyzed with instrument-manufacturer supplied software. Confirmation of proposed elemental compositions was achieved using the same chromatography and ion source configuration with the spectra recorded by scanning on an orbitrap mass spectrometer (Thermo LTQ XL).

[2] = expressed in E. coli C41-pLys, grown with two tauro- (TCA, TCDCA) or glyco- (GCA, GCDCA) bile acids

Molecule	bile salt hydrolase (deconjugation) activity [1, 2]	further results
B1	moderate activity on TCDCA	
B2	deconjugates both glyco- and tauro-conjugates	
B3	tauro-specific	
B4	activity on TCDCA and GCDCA	bile salt hydrolase (deconjugation) activity ([1]; expressed in E. coli, presented with the combined four bile acids): blunted
B5		dehydrogenation of CA (CA, CDCA, and DCA; grown in CA): removed the mass equivalent of two hydrogens from CA; dehydrogenation of CDCA (CA, CDCA, and DCA; grown in CDCA): Background transformation by E. coli prevented clear evidence of CDCA dehydrogenation; dehydrogenation of DCA (CA, CDCA, and DCA; grown in DCA): did not act on DCA

Source: patent US20250375505A1, “COMPOSITIONS AND METHODS FOR MODIFYING BILE ACIDS TO REGULATE LIPID AND STEROID METABOLISM” (The Regents of the University of California, priority 2021, published 2025)
